Biological target: EGFR antigen (epidermal growth factor receptor) (UniProt P00533 25-645)
Experiment: electrochemical aptasensor (CV/DPV); aptamer on NH2-GO/THI/AuNP paper electrode; linear range 0.05-200 ng/mL, LOD 5 pg/mL (not a Kd); Aptamer on NH2-GO/THI/AuNP electrode, mercaptoethanol block, wash in TE (10 mM Tris-HCl, 1 mM EDTA; TE stock pH 8.0); binding buffer and temperature not given in the material
Settings: protein: commercial

B1: anti-EGFR aptamer (ssDNA)
DNA: TACCAGTGCGATGCTCAGTGCCGTTTCTTCTCTTTCGCTTTTTTTGCTTTTGAGCATGCTGACGCATTCGGTTGAC
modifications: 5'-thiol
**Q.** Does B1 bind?
**A.** binds
